Usually Kd stands for the concentration at which binding is half-saturated. Read a high Kd as a looser complex. Broadly, the koff is the first-order rate constant of dissociation. Low values mean a long-lived complex, high ones a short-lived complex. One may read the kon as a measure of how fast the partners come together. Read a high kon as faster complex formation.

For test [1], the target named is T1, Clec12A-His protein, Clec12A (H65-A265-WT-EOm-NIgKss-6His) (human, UniProt Q5QGZ9 65-265).
T1 construct: The protein was biotinylated for the ELISA binning assay; also called soluble Clec12A-His; soluble Clec12A
T1 sequence: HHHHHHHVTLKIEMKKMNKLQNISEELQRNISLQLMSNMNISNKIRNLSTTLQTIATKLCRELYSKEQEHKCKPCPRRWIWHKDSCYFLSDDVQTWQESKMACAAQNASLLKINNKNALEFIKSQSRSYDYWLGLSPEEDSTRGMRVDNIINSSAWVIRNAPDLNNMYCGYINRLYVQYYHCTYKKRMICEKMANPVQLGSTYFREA
Briefly: Biacore SPR; antibody captured on anti-mouse IgG chip, soluble Clec12A-His at 100 nM in solution; monovalent. As for the experimental part:
(§1) Briefly, […] anti-Clec12A antibodies derived from and produced in hybridoma were tested for their binding affinity on soluble Clec12A in a Biacore SPR system. Briefly, the antibodies were immobilized on anti-mouse IgG sensor chips and bound to soluble Clec12A-His protein (Clec12A extracellular domains fused to 6×His tag (SEQ ID NO: 79)) at 100 nM in the solution phase. The resulting Biacore traces are as shown in […]
(Surface plasmon resonance follows binding to a sensor surface in real time, without labels.)

In test [2] the target is T1, Clec12A-His protein, Clec12A …. Kind of test: Biacore SPR; antibody captured on anti-mouse IgG chip, soluble Clec12A-His at 100 nM in solution. As for the experimental part:
as §1

B1: anti-Clec12A antibody A (antibody, V domains shown)
VH: QVQLQESGPGLVKPSETLSLTCTVSGGSISTYYWSWIRQPPGKGLEWIGYIYYSGSTKYNPSLKSRVTISVDTSKNLFSLKLSSVTAADTAVYYCAREDYYGSGSPFDYWGQGTLVTVSS
VL: IQMTQSPSSLSASVGDRVTITCRASQGIRYDLGWYQQKPGKAPKLLIYAASSLQSGVPSRFSGSGSGTDFTLTISSLQPEDFATYYCLQDYNFPRTFGQGTKVEIK
notes: Described as a human anti-Clec12A antibody derived from and produced in hybridoma, captured on anti-mouse IgG sensor chips; also called Clone A
B1 displayed a Kd in test [1] of 2.87 nM. In test [2], the koff was 0.0132 s⁻¹ and the kon amounted to 4.62e+06 M⁻¹ s⁻¹.

B2: anti-Clec12A antibody D (antibody, V domains shown)
VH: QLQLQESGPGLVKPSETLSLTCTVSGGSISSSTYYWGWIRQPPRKGLEWIGSTHYRGSTYYNPSLKSRVTISVDTSKNQFSLKVSSVTAADTAVYYCARELTGEVFDYWGQGTLVTVSS
VL: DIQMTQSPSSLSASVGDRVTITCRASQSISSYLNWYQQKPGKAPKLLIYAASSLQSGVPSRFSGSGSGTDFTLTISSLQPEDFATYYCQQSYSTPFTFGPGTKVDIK
notes: Hybridoma-produced IgG; also called Clone D; anti-Clec12A Clone D antibody
As to B2, binding in test [1] was characterised by a dissociation constant (Kd) of 1.99 nM.

B3: anti-Clec12A antibody B (antibody, V domains shown)
VH: QVQLVESGGGVVQPGRSLRLSCAASGFTFSSYGMHWVRQAPGKGLEWVAVISYDGSDKYYVDSVKGRFTISRDNSKNTLYLHMNSLRAEDTAVYYCARDKGYYFDYWGQGTLVTVSS
VL: EIVMTQSPATLSLSPGERATLSCRASQSVGNRYLSWYQQKPGQAPRLLIYGASTRATGIPARFSGSGSGTDFTLTISSLQPEDFAVYYCQQDYNLPLTFGGGTKVEIK
notes: Hybridoma-produced IgG; also called Clone B
For B3, binding in test [1] was put at a Kd of 3.78 nM. In test [2], this molecule showed a koff of 0.000666 s⁻¹ and a kon of 176000 M⁻¹ s⁻¹.

B4: anti-Clec12A antibody C (antibody, V domains shown)
VH: QVQLVESGGGVVQPGRSLRLSCAASGFTFSSYGMHWVRQAPGKGLEWVAVISYDGSDKYSADSVKGRFNISRDNSKNTLYLQMNSLRAEDTAVYYCARDGSRYFDYWGQGTLVTVSS
VL: EIFMTQSPATLSLSPGERATLSCRASQSVHSKYLSWYQQKPGQAPSLLIYGASTRATGIPARFSGSGSGTDFTLTISSLQPEDFAVYYCQQDYNLPITFGQGTRLEIK
notes: Hybridoma-produced IgG; also called Clone C
Turning to B4, the Kd in test [1] was less than 0.0549 nM. In test [2], this molecule had a koff of less than 1e-05 s⁻¹ and an on-rate constant (kon) of 182000 M⁻¹ s⁻¹.

Source of the values: US20230111279A1 (Takeda / Millennium, published 2023).
